Results published in PMC9909445 (Nature nanotechnology, 2022).

Tests used:
[1] = target: T1, murine neutrophil elastase (mNE) (mouse, UniProt Q3UP87 27-265); test: SPR
T1 sequence (looked up): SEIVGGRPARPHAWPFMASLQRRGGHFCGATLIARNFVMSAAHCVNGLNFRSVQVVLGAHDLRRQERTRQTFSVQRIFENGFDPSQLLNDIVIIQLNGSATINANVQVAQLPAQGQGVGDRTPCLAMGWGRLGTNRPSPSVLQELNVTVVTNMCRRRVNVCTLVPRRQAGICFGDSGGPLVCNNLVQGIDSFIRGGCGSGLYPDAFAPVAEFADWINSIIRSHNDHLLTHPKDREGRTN

[2] = target: T2, human neutrophil elastase (hNE) (human, UniProt P08246 30-267); test: MST
T2 sequence (looked up): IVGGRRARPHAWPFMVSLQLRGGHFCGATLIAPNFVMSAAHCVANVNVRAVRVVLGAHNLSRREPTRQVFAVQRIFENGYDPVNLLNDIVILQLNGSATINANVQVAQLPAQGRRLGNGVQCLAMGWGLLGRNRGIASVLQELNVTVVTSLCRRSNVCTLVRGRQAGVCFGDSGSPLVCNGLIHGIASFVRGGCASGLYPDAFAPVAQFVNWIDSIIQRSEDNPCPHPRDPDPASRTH

B1: NE-binding peptide (NEBP) (peptide)
peptide: CGEAIPMSIPPEVK
Question: What does the source list for B1?
Answer: Kd [1]: 1.6 nM; koff [1]: 8.31e-06 s⁻¹; kon [1]: 5200 M⁻¹ s⁻¹; Kd [2]: 2080 ± 1350 nM
